Laboratory results as given in patent US8093037B2, “Engineered microorganisms with enhanced fermentation activity” (Verdezyne, Inc., priority 2009, dated 2012).
“And” between values parts separate entries of the source, which are not always exact repeats. Equal entries are not always repeated.

What was measured:
[1] = Xylose isomerase activity assay (sorbitol dehydrogenase/NADH coupled, Kuyper et al.), soluble whole cell extract; format: biochemical, Saccharomyces cerevisiae
[2] = Heterologous xylose isomerase expression in yeast (active yes/no); format: cell-based, Saccharomyces cerevisiae; details: xylose isomerase of donor organism expressed in engineered yeast (S. cerevisiae)
[3] = biological target: xylose isomerase; assay: Xylose isomerase assay in the presence of xylitol (inhibition constant); format: biochemical; details: chimeric variants table; inhibitor xylitol
Method: Approximately 20 μg of soluble whole cell extract from each transformed cell line, prepared using Y-PER plus reagent as described above, was incubated in a solution containing about 100 mM Tris, pH 7.5, 10 mM MgCl ? 2, 0.15 mM NADH (Sigma, St. Louis, Mo.), and 2 U Sorbitol Dehydrogenase (SDH) (Roche, Indianapolis, Ind.) at about 30° C. […] A Beckman DU-800 spectrophotometer was utilized with an Enzyme Mechanism software package (Beckman Coulter, Inc, Brea, Calif.), and the change in the A340 was monitored for 2-3 minutes.

[4] = test system: Saccharomyces cerevisiae (strain BF903); assay: Industrial yeast strain evaluation: ethanol production on xylose in sealed serum bottles; format: cell-based; details: strain BF903, YP plus xylose, sealed serum bottle
Method: The serum bottles were sealed with a butyl rubber stopper to prevent air exchange. As a result, the cultures became anaerobic once the available oxygen in the serum bottle was utilized. In general, anaerobiosis (e.g., the onset of anaerobic conditions) occurred a few hours after the culture was inoculated. Xylose utilization, ethanol production and cell growth were measured every twenty four hours.

[5] = test system: C5 strain; assay: Xylose fermentation of C5 strain transformed with xylose isomerase constructs; format: cell-based, Saccharomyces cerevisiae
Excerpt: The engineered strain was designed to include the following genetic modifications: the native Pho13 gene (alkaline phosphatase specific for p-nitrophenyl phosphate) was disrupted by inserting a construct containing the native TLK1 gene (Transketolase-1); the native aldose reductase gene (Gre3) was disrupted by inserting a construct containing the native high-affinity glucose transporter-7 gene (HXT7); the native glucose-repressible alcohol dehydrogenase II gene (adh2) was disrupted by inserting a construct containing the native xylulokinase gene (XYLK); and the native orotidine-5′ phosphate decarboxylase gene (ura3) was disrupted by inserting a construct containing the native transaldolase 1 gene (TAL1). The resulting strain had the following genotype: pho13::TKL1, gre3::HXT7, adh-2::XYLK, ura3::TAL1.
The C5 strain was transformed using standard protocols with either p426GPD (as a control) or the chimeric variants XI-R, XI-Rp5, XI-Rp10, or XI-Rp15. The transformed cells were grown on SC-glucose minus uracil initially and then passaged onto SC-xylose minus uracil. Cultures of each of the above constructs were made in SC-xylose minus uracil—and grown for one week. The cultures were grown aerobically at 30° C. with 250 rpm agitation, 1 vvm sparge of process air, 21% O2. The pH was controlled at about 5.0 with 1N NaOH. […] At 24 hours elapsed fermentation time the fermentation was switched to anaerobic conditions. […] Oxygen was purged with 100% N2 sparge at 1 vvm until percent O2 was below 1%. Aeration was then set at 0.25 vvm 100% N2.
The final sample also measured biomass by dry cell weight.

[6] = test system: Saccharomyces cerevisiae (strain BF903); assay: Industrial yeast strain evaluation: aerobic growth and xylose consumption in YP-xylose; format: cell-based; details: 30° C., 7 days
Method: A commercially available industrial diploid strain of Saccharomyces cerevisiae (strain BF903; “Stillspirits” triple distilled yeast, Brewcraft, Albany, New Zealand; available at Hydrobrew, Oceanside, Calif.) was obtained and was made competent for transformation using known yeast cell transformation procedures. […] Transformed yeast containing each construct were grown overnight aerobically in a 15 ml culture tube on YPD media containing 2% glucose. After about 24 hours, about 25 ml of YP media containing 2% glucose and 100 μg/ml G418 was seeded with the cells at an initial OD600 of 0.5 in a 250 ml Erlenmeyer flask and grown aerobically at 30° C. The cultures were then passaged once every 7 days into fresh media, also at an initial OD600 of 0.5.
Measurements were taken of the cell optical density (OD600) to assess cell density and plated onto YPD with 100 μg/ml G418 to ensure that the plasmid was stable. […] The strains were then grown overnight in YPD (with 100 μg/ml G418) and used to inoculate about 50 ml YP-xylose (with 100 μg/ml G418) into disposable 250 ml Erlenmeyer flasks with vented caps at an initial OD600 of about 1. The cultures were allowed to grow aerobically at 30° C. at 200 rpm for 7 days.

## XI-P: xylose isomerase from Piromyces strain E2, SEQ ID NO: 35
[1]; chimeric variants table, xylose 40-500 mM, soluble whole cell extract
  Specific Activity: 2.02 µmol/min/mg
[2]
  Active? (yes/no): Yes
[3]
  Ki: 4.79 mM

B1: XI-R: native xylose isomerase of Ruminococcus flavefaciens strain 17, SEQ ID NO: 31 (protein, listed as Ruminococcus flavefaciens)
chain: MEFFSNIGKIQYQGPKSTDPLSFKYYNPEEVINGKTMREHLKFALSWWHTMGGDGTDMFGCGTTDKTWGQSDPAARAKAKVDAAFEIMDKLSIDYYCFHDRDLSPEYGSLKATNDQLDIVTDYIKEKQGDKFKCLWGTAKCFDHPRFMHGAGTSPSADVFAFSAAQIKKALESTVKLGGNGYVFWGGREGYETLLNTNMGLELDNMARLMKMAVEYGRSIGFKGDFYIEPKPKEPTKHQYDFDTATVLGFLRKYGLDKDFKMNIEANHATLAQHTFQHELRVARDNGVFGSIDANQGDVLLGWDTDQFPTNIYDTTMCMYEVIKAGGFTNGGLNFDAKARRGSFTPEDIFYSYIAGMDAFALGFRAALKLIEDGRIDKFVADRYASWNTGIGADIIAGKADFASLEKYALEKGEVTASLSSGRQEMLESIVNNVLFSL
[1]; xylose isomerase expressed in S. cerevisiae, total soluble crude extract, xylose concentrations between 40 and 500 nM (so in the source), Michaelis-Menten plot
  Specific Activity: 0.9605 µmol/min/mg
[4]
  cell growth (cell density): grew to a higher cell density
  ethanol production: produced more ethanol
[2]
  Active? (yes/no): Yes
[5]; final sample at 372 hours
  Dry Cell Wt: 2.20 g/L and 2.03 g/L
  Ethanol: 15.65 g/L and 15.5 g/L
  Glucose: 0 g/L
  Xylose: 3.14 g/L and 3.85 g/L
[5]; final sample at 372 hours after commencing fermentation
  OD600 nm: 7.72 and 7.32
[6]
  xylose consumption: more efficient at consuming xylose
